Results on 77 sequences are retold here after the supplement of paper PMC7877785.

± gives the uncertainty stated by the source.

The data set can be described thus: self-splicing fitness, log relative to wild type (ln ratio); higher = more splicing; Tetrahymena group I intron in knt gene, E. coli kanamycin selection, DiMSum; sequences stand for … in CUCUCU…GGAGGGAAAAGUUAUCAGGCAUGCACCUGGUAGCUAGUCUUUAAACCAAUAGAUUGCAUCGGUUUAAAAGGCAAGACCGUCAAAUUGCGGGAAAGGGGUCAACAGCCGUUCAGUACCAAGUCUCAGGGGAAACUUUGAGAUGGCCUUGCAAAGGGUAUGGUAAUAAGCUGACGGACAUGGUCCUAACCACGCAGCCAAGUCCUAAGUCAACAGAUCUUCUGUUGAUAUGGAUGCAGUUCACAGACUAAAUGUCGGUCGGGGAAGAUGUAUUCUUCUCAUAAGAUAUAGUCGGACCUCUCCUUAAUGGGAGCUAGCGGAUGAAGUGAUGCAACACUGGAGCCGCUGGGAACUAAUUUGUAUGCGAAAGUAUAUUGAUUAGUUUUGGAGUACUCGUGGUCG
The method in brief:
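Library with all eight P1ex-region intron nucleotides randomised, intron inside the knt kanamycin-resistance gene on pET-22b(+), in E. coli BL21(DE3). Cells grew overnight at 37°C or 30°C on LB agar with or without 25 μg/mL kanamycin (plus 100 μg/mL carbenicillin, 50 μM IPTG, 0.2% rhamnose), in six replicate transformations. Pooled colonies were amplicon-sequenced on Illumina HiSeq 2500. DiMSum fitness is the error-weighted combination of wild-type-normalised replicate fold changes, kanamycin versus none.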

On to GUGAAGCAAUAUUACGUUCC, for which the “self-splicing fitness (ln)” value (30 °C) was -1.67 ± 0.17 and the “self-splicing fitness (ln)” value (37 °C) was -1.16 ± 0.2.
The matching figures for GGGGAGCAAUAUUACGCAUU: -3.09 ± 0.27 and -1.93 ± 0.21.
The like results for ACAAAGCAAUAUUACGACAA were, in that order, -0.955 ± 0.15 and -0.443 ± 0.13.
As for CCUUAGCAAUAUUACGCUCC, under “37 °C”, the “self-splicing fitness (ln)” value was -1.44 ± 0.5.
As to UUUAAGCAAUAUUACGCUAG, the “self-splicing fitness (ln)” value was -1.54 ± 0.15 (30 °C) and -0.671 ± 0.2 (37 °C).
ACUCAGCAAUAUUACGCAAC: the “self-splicing fitness (ln)” value (30 °C) was -2.14 ± 0.17 and the “self-splicing fitness (ln)” value (37 °C) was -2.43 ± 0.26.
In the case of CGCGAGCAAUAUUACGUCCA, under “37 °C”, the “self-splicing fitness (ln)” value was -1.96 ± 0.32.
For UAUUAGCAAUAUUACGGUAU, the “self-splicing fitness (ln)” value is, setting by setting: (30 °C) -3.6 ± 0.29; (37 °C) -2.26 ± 0.31.
The like results for AUUUAGCAAUAUUACGUAGU were, in that order, -1.54 ± 0.079 and -0.851 ± 0.1.
The matching figures for AGUUAGCAAUAUUACGUCGA: -1.37 ± 0.12 and -1.02 ± 0.13.
The matching figures for AUUGAGCAAUAUUACGAUCG: -2.34 ± 0.34 and -1.04 ± 0.19.
In the case of CACGAGCAAUAUUACGUUCA, the “self-splicing fitness (ln)” value reads like this: (30 °C) -2.99 ± 0.18; (37 °C) -2.49 ± 0.24.
The like results for CUGGAGCAAUAUUACGCCUA were, in that order, -1.84 ± 0.36 and -1.44 ± 0.32.
The like results for AUGCAGCAAUAUUACGCUAA were, in that order, -0.813 ± 0.13 and -0.31 ± 0.12.
Consider AUAUAGCAAUAUUACGGAAC, for which the “self-splicing fitness (ln)” value (30 °C) was -2.89 ± 0.41.
On to GUCGAGCAAUAUUACGGAUA, for which the “self-splicing fitness (ln)” value (37 °C) is -1.25 ± 0.27.
Regarding GGCCAGCAAUAUUACGCUAG, the “self-splicing fitness (ln)” value was -3.21 ± 0.21 (30 °C) and -2.47 ± 0.3 (37 °C).
For CAUAAGCAAUAUUACGCACA, the “self-splicing fitness (ln)” value was -2.05 ± 0.12 (30 °C) and -0.312 ± 0.11 (37 °C).
The matching figures for CAGAAGCAAUAUUACGAUAG: -0.588 ± 0.075 and 0.256 ± 0.093.
The matching figures for GCUUAGCAAUAUUACGUAUG: -1.6 ± 0.18 and -1.17 ± 0.2.
The like results for AGUCAGCAAUAUUACGUAGU were, in that order, -1.21 ± 0.077 and -0.268 ± 0.12.
As to UAUUAGCAAUAUUACGGACU, the “self-splicing fitness (ln)” value was -2.33 ± 0.31 (30 °C) and -1.47 ± 0.4 (37 °C).
On to UUUGAGCAAUAUUACGGUUU, for which the “self-splicing fitness (ln)” value is, setting by setting: (30 °C) -3.23 ± 0.48; (37 °C) -1.92 ± 0.32.
The like results for UCGCAGCAAUAUUACGAACC were, in that order, -3.4 ± 0.4 and -2.44 ± 0.41.
The like results for CCUCAGCAAUAUUACGAGUC were, in that order, -3.88 ± 0.34 and -2.27 ± 0.26.
The like results for UAUGAGCAAUAUUACGGUCU were, in that order, -2.78 ± 0.28 and -2.96 ± 0.4.
Regarding CUUUAGCAAUAUUACGUUAC, the “self-splicing fitness (ln)” value was -3.92 ± 0.34 (30 °C) and -1.74 ± 0.29 (37 °C).
The like results for CCCCAGCAAUAUUACGUUUU were, in that order, -4.12 ± 0.14 and -2.55 ± 0.11.
The like results for GUCUAGCAAUAUUACGCACA were, in that order, -0.72 ± 0.12 and -0.113 ± 0.14.
Regarding UCGUAGCAAUAUUACGUUCG, the “self-splicing fitness (ln)” value by setting is: (30 °C) -1.45 ± 0.071; (37 °C) -0.735 ± 0.086.
The matching figures for CUGAAGCAAUAUUACGCAGA: -3.67 ± 0.19 and -2.71 ± 0.21.
Regarding GACGAGCAAUAUUACGUCCC, the “self-splicing fitness (ln)” value (37 °C) was -0.0984 ± 0.5.
As for GCGAAGCAAUAUUACGGACU, the “self-splicing fitness (ln)” value runs as follows: (30 °C) -0.302 ± 0.12; (37 °C) 0.296 ± 0.13.
The like results for AUUGAGCAAUAUUACGGCCG were, in that order, -3.13 ± 0.26 and -0.636 ± 0.18.
The matching figures for GUCUAGCAAUAUUACGCACC: -1.81 ± 0.11 and -0.328 ± 0.14.
The matching figures for CCAUAGCAAUAUUACGCGAC: -3.56 ± 0.13 and -2.9 ± 0.18.
Regarding GGGGAGCAAUAUUACGUGUU, the “self-splicing fitness (ln)” value by setting is: (30 °C) -3.92 ± 0.35; (37 °C) -2.29 ± 0.27.
The like results for CAGCAGCAAUAUUACGUUGG were, in that order, -1.91 ± 0.072 and -0.788 ± 0.084.
The like results for GAAAAGCAAUAUUACGCGGA were, in that order, -2.25 ± 0.14 and -0.603 ± 0.13.
The like results for GGAAAGCAAUAUUACGUAUC were, in that order, -2.09 ± 0.18 and -1.01 ± 0.15.
With UAGCAGCAAUAUUACGUUUU, the “self-splicing fitness (ln)” value (30 °C) was -2.6 ± 0.12 and the “self-splicing fitness (ln)” value (37 °C) is -2.31 ± 0.19.
The like results for CUUGAGCAAUAUUACGUGCU were, in that order, -1.93 ± 0.11 and -3.89 ± 0.42.
Consider GUGAAGCAAUAUUACGUAGC, for which the “self-splicing fitness (ln)” value runs as follows: (30 °C) -3.31 ± 0.15; (37 °C) -1.84 ± 0.18.
The like results for AGACAGCAAUAUUACGGUAA were, in that order, -2.04 ± 0.11 and -1.37 ± 0.085.
Regarding UUUAAGCAAUAUUACGGCGC, the “self-splicing fitness (ln)” value by setting is: (30 °C) -1.15 ± 0.17; (37 °C) -0.784 ± 0.23.
In the case of GAGUAGCAAUAUUACGAGGG, the “self-splicing fitness (ln)” value (30 °C) was -3.5 ± 0.44 and the “self-splicing fitness (ln)” value (37 °C) is -1.94 ± 0.28.
Consider GACGAGCAAUAUUACGGUAA, for which the “self-splicing fitness (ln)” value reads like this: (30 °C) -3.65 ± 0.47; (37 °C) -2.33 ± 0.33.
The like results for UAAUAGCAAUAUUACGUUCU were, in that order, -2.47 ± 0.29 and -1.9 ± 0.32.
The matching figures for GGAUAGCAAUAUUACGCUUG: -1.81 ± 0.12 and -1.11 ± 0.16.
The like results for AUGGAGCAAUAUUACGCGGA were, in that order, -2.73 ± 0.29 and -1.34 ± 0.22.
Consider CCUUAGCAAUAUUACGGUGU, for which the “self-splicing fitness (ln)” value runs as follows: (30 °C) -3.82 ± 0.24; (37 °C) -2.81 ± 0.23.
The matching figures for CGCCAGCAAUAUUACGAGCC: -1.63 ± 0.14 and -0.446 ± 0.18.
The matching figures for CAAUAGCAAUAUUACGUCGG: -0.177 ± 0.069 and 0.202 ± 0.083.
The like results for CAAGAGCAAUAUUACGCCAG were, in that order, -1.92 ± 0.24 and -2 ± 0.41.
In the case of UGGAAGCAAUAUUACGGUUC, the “self-splicing fitness (ln)” value was -3.84 ± 0.2 (30 °C) and -2.21 ± 0.2 (37 °C).
Take CUUGAGCAAUAUUACGCUCG: the “self-splicing fitness (ln)” value runs as follows: (30 °C) -1.7 ± 0.17; (37 °C) -2.65 ± 0.44.
The like results for GGAAAGCAAUAUUACGCGAG were, in that order, -0.597 ± 0.1 and 0.758 ± 0.1.
The matching figures for UGACAGCAAUAUUACGAGAG: -3.08 ± 0.14 and -1.75 ± 0.11.
Regarding CUGUAGCAAUAUUACGCGUA, the “self-splicing fitness (ln)” value was -3.3 ± 0.3 (30 °C) and -2.89 ± 0.25 (37 °C).
The like results for GGACAGCAAUAUUACGCACU were, in that order, -1.12 ± 0.086 and -0.6 ± 0.13.
On to GAGCAGCAAUAUUACGAGGU, for which the “self-splicing fitness (ln)” value (30 °C) is -4.1 ± 0.33 and the “self-splicing fitness (ln)” value (37 °C) was -1.65 ± 0.15.
The like results for AGGUAGCAAUAUUACGACAG were, in that order, -1.6 ± 0.017 and -0.956 ± 0.034.
The like results for UUCGAGCAAUAUUACGGCAG were, in that order, -2.05 ± 0.17 and -1.39 ± 0.19.
Take AGGAAGCAAUAUUACGCCCU: the “self-splicing fitness (ln)” value (30 °C) is -2.95 ± 0.33.
Turning to CGCUAGCAAUAUUACGUGUA, the “self-splicing fitness (ln)” value was -3.54 ± 0.27 (30 °C) and -1.53 ± 0.13 (37 °C).
The like results for GGCAAGCAAUAUUACGCCUU were, in that order, -2.83 ± 0.22 and -0.231 ± 0.16.
The matching figures for CGCCAGCAAUAUUACGUCUG: -2.97 ± 0.18 and -0.917 ± 0.13.
For the sequence CCGCAGCAAUAUUACGUCAC, the “self-splicing fitness (ln)” value reads like this: (30 °C) -4.14 ± 0.19; (37 °C) -2.84 ± 0.22.
The like results for UGCAAGCAAUAUUACGUUGA were, in that order, -2.47 ± 0.1 and -1.32 ± 0.11.
The like results for UACAAGCAAUAUUACGAUUC were, in that order, -3.23 ± 0.13 and -2.04 ± 0.16.
The matching figures for ACCCAGCAAUAUUACGGUGC: -1.11 ± 0.069 and -0.261 ± 0.086.
Turning to CGAUAGCAAUAUUACGGUAG, the “self-splicing fitness (ln)” value by setting is: (30 °C) -1.41 ± 0.11; (37 °C) -0.461 ± 0.11.
The matching figures for GACCAGCAAUAUUACGGCCG: -0.246 ± 0.063 and 0.158 ± 0.093.
As for UGACAGCAAUAUUACGCAUG, the “self-splicing fitness (ln)” value was -1.03 ± 0.055 (30 °C) and -0.328 ± 0.061 (37 °C).
For AACCAGCAAUAUUACGACCU, the “self-splicing fitness (ln)” value by setting is: (30 °C) -0.404 ± 0.093; (37 °C) -0.0868 ± 0.1.
The matching figures for CAUCAGCAAUAUUACGCGUC: -2.58 ± 0.089 and -0.783 ± 0.086.
The like results for GGGUAGCAAUAUUACGAGCA were, in that order, -0.991 ± 0.2 and 0.0569 ± 0.17.
